Measured values published in patent publication US20100166708.

Target: T1, tumor necrosis factor receptor (TNFR)-associated factor 1, Q13077
T1 chain: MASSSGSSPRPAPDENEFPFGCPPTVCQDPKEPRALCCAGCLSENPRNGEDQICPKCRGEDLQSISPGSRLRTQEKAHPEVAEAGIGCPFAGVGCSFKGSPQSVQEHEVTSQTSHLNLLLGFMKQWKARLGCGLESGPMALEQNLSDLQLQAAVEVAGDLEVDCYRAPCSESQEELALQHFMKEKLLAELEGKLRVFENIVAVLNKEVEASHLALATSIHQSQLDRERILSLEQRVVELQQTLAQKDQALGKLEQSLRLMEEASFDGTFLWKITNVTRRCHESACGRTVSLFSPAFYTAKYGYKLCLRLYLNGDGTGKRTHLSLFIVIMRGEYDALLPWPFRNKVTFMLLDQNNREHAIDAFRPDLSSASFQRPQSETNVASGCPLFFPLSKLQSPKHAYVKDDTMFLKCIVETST

B1: caspase 8 (protein)
chain: MDFSRNLYDIGEQLDSEDLASLKFLSLDYIPQRKQEPIKDALMLFQRLQEKRMLEESNLSFLKELLFRINRLDLLITYLNTRKEEMERELQTPGRAQISAYRVMLYQISEEVSRSELRSFKFLLQEEISKCKLDDDMNLLDIFIEMEKRVILGEGKLDILKRVCAQINKSLLKIINDYEEFSKERSSSLEGSPDEFSNGEELCGVMTISDSPREQDSESQTLDKVYQMKSKPRGYCLIINNHNFAKAREKVPKLHSIRDRNGTHLDAGALTTTFEELHFEIKPHDDCTVEQIYEILKIYQLMDHSNMDCFICCILSHGDKGIIYGTDGQEAPIYELTSQFTGLKCPSLAGKPKVFFIQACQGDNYQKGIPVETDSEEQPYLEMDLSSPQTRYIPDEADFLLGMATVNNCVSYRNPAEGTWYIQSLCQSLRERCPRGDDILTILTEVNYEVSNKDDKKNMGKQMPQPTFTLRKKLVFPSD
cleavage of TRAF1 to N-terminal TRAF1 (western blot, normal human keratinocytes): The overexpression of TRIF caused caspase 8-dependent cleavage of TRAF1 to release N-terminal TRAF1 (N-TRAF1) (FIG. 14e), which was prevented by caspase 8 inhibitor (FIG. 14f)
